2 substances from article PMC5827731 can be followed below.

The target of experiment [1] is SURF6-N (N-terminal segment of Surfeit locus protein 6, residues 1-182) (UniProt O75683).
Experiment [2] has as its target NPM1^mutB2 (Lys and Arg to Ala in the B2-tract) (UniProt P06748).

UniProt O75683, sequence (O75683 1-182): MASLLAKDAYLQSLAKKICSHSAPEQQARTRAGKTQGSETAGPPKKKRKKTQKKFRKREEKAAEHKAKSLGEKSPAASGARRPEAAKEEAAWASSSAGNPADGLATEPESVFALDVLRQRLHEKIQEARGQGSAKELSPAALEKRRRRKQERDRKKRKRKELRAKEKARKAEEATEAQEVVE

As for “NPM1^N188 (NPM1 truncation that lacks the CTD plus the B2-tract) (domain or fragment)”, in experiment [1], the threshold concentration for heterotypic LLPS with SURF6-N (turbidity, Fig. 2c) was 30 µM.
As to “NPM1^mutB2 (Lys and Arg to Ala in the B2-tract) (from UniProt P06748 1-294) (natural protein)”, the threshold SURF6-N concentration for heterotypic LLPS, NPM1 construct at 20 µM (turbidity) in experiment [2] came to 60 µM.
